Assay results published in US6942981.
Ends that are not written are not given here. * marks the point of attachment. Biotin = O=C1N[C@H]2[C@H](CS[C@H]2CCCCC(=O)*)N1

How the values were obtained:
[1] = molecular target: T1, GST-MINT3 PDZ domain fusion protein (human); assay: A/G assays
T1 construct: also called human MINT3; not shown: glutathione S-transferase (GST) encoded by pGEX-3X
T1 chain: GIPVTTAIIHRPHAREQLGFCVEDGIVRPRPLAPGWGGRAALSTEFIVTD

[2] = molecular target: T2, GST-LIMK2 PDZ domain fusion protein (human, UniProt P53671 147-237); assay: A/G assays
T2 construct: also called human LIM domain kinase 2; not shown: glutathione S-transferase (GST) encoded by pGEX-3X
T2 sequence: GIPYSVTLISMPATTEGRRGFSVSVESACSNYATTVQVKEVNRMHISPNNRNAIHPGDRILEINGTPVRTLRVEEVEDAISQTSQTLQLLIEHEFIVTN

[3] = molecular target: T3, GST-DVL1 PDZ domain fusion protein (human); assay: A/G assays
T3 construct: also called human dishevelled segment polarity protein homolog; not shown: glutathione S-transferase (GST) encoded by pGEX-3X
T3 chain: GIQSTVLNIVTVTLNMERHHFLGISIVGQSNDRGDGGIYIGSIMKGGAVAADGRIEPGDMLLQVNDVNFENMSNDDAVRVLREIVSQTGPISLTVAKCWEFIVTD

[4] = molecular target: T4, GST-SYN1a (alpha1-syntrophin) PDZ domain fusion protein (Homo sapiens (Human), UniProt Q13424 84-179); assay: A/G assays
T4 construct: also called SYN 1 α; not shown: glutathione S-transferase (GST) encoded by pGEX-3X
T4 sequence: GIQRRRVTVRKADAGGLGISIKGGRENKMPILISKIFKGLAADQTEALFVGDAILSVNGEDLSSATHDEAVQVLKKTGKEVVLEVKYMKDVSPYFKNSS

[5] = molecular target: T5, GST-TAX2 PDZ domain fusion protein (human, UniProt O14908 129-216); assay: A/G assays
T5 construct: not shown: glutathione S-transferase (GST) encoded by pGEX-3X
T5 chain: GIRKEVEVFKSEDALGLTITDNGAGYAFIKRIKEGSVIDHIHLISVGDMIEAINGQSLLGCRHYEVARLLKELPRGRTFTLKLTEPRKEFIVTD

[6] = molecular target: T6, GST-MPP2 PDZ domain fusion protein; assay: A assay
T6 construct: also called maguk p55 subfamily member 2 (DLG2); MMP2; not shown: glutathione S-transferase (GST) encoded by pGEX-3X
T6 chain: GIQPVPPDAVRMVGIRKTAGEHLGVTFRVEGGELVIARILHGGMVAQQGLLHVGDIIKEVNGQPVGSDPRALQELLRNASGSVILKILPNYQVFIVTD

[7] = molecular target: T7, GST-NeDLG PDZ domains 1-2 fusion protein (Mus musculus (Mouse), UniProt P70175 147-332); assay: G assay
T7 construct: also called NeDLG1; not shown: glutathione S-transferase (GST) encoded by pGEX-3X
T7 chain: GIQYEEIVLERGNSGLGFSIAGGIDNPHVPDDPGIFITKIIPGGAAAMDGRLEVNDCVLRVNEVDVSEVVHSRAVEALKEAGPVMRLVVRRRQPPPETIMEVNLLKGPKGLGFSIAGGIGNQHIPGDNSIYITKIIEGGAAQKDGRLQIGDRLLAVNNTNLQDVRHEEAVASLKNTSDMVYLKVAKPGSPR

[8] = molecular target: T8, GST-MPP1 PDZ domain fusion protein (Homo sapiens (Human), UniProt Q00013 67-152); assay: A/G assays
T8 construct: also called 55 Kd erythrocyte membrane protein; not shown: glutathione S-transferase (GST) encoded by pGEX-3X
T8 sequence: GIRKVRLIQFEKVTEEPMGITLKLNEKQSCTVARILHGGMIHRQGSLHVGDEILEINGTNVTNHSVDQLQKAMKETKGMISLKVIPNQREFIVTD

[9] = molecular target: T7, GST-NeDLG PDZ domains 1-2 fusion protein; assay: A/G assays
[10] = molecular target: T6, GST-MPP2 PDZ domain fusion protein; assay: A/G assays
[11] = molecular target: T9, GST-prIL16 PDZ domains 1-2 fusion protein (Homo sapiens (Human), UniProt Q14005 1110-1325); assay: G assay
T9 construct: also called putative interleukin 16 precursor; not shown: glutathione S-transferase (GST) encoded by pGEX-3X
T9 sequence: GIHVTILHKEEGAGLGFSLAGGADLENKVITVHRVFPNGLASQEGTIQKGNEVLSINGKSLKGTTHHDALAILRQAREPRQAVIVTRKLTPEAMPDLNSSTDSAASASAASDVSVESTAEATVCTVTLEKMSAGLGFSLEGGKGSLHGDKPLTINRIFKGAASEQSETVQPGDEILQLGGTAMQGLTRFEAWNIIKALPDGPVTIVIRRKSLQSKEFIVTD

[12] = molecular target: T8, GST-MPP1 PDZ domain fusion protein; assay: G assay
[13] = molecular target: T10, GST-CASK PDZ domain fusion protein (mouse, UniProt O14936 485-575 (human entry)); assay: A/G assays
T10 sequence: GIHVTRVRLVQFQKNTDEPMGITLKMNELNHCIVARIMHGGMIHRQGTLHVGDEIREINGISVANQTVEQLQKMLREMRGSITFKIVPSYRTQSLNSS

Row | Binder | binding result [1] | binding result [2] | binding result [3] | binding result [4] | binding result [5] | binding result [6] | binding result [7] | binding result [8] | binding result [9] | binding result [10] | binding result [11] | binding result [12] | binding result [13]
1 | Biotin-QGDPALQDAGDSSRKEYFI (also called GC) [Glycophorin C C-terminal peptide AA37L] | no binding | no binding | no binding | no binding | no binding | binds | binds | no binding | – | – | – | – | –
2 | Biotin-QFMTADETRNLQNVDMKIGV [CD44 (long form) C-terminal peptide AA9L] | no binding | no binding | no binding | no binding | no binding | – | – | – | no binding | no binding | binds | binds | –
3 | Biotin-PKQANGGAYQKPTKQEEFYA [CD138 (syndecan) C-terminal peptide AA18L] | no binding | no binding | no binding | no binding | no binding | – | – | – | no binding | no binding | – | – | no binding
